Reference: US20210309981, “VARIANT TYPE V CRISPR/CAS EFFECTOR POLYPEPTIDES AND METHODS OF USE THEREOF” (The Regents of the University of California, published 2021)

Molecular target: T1, dCasX (D672A-E769A-D935A) (Deltaproteobacteria, D672A,E769A,D935A)
T1 chain: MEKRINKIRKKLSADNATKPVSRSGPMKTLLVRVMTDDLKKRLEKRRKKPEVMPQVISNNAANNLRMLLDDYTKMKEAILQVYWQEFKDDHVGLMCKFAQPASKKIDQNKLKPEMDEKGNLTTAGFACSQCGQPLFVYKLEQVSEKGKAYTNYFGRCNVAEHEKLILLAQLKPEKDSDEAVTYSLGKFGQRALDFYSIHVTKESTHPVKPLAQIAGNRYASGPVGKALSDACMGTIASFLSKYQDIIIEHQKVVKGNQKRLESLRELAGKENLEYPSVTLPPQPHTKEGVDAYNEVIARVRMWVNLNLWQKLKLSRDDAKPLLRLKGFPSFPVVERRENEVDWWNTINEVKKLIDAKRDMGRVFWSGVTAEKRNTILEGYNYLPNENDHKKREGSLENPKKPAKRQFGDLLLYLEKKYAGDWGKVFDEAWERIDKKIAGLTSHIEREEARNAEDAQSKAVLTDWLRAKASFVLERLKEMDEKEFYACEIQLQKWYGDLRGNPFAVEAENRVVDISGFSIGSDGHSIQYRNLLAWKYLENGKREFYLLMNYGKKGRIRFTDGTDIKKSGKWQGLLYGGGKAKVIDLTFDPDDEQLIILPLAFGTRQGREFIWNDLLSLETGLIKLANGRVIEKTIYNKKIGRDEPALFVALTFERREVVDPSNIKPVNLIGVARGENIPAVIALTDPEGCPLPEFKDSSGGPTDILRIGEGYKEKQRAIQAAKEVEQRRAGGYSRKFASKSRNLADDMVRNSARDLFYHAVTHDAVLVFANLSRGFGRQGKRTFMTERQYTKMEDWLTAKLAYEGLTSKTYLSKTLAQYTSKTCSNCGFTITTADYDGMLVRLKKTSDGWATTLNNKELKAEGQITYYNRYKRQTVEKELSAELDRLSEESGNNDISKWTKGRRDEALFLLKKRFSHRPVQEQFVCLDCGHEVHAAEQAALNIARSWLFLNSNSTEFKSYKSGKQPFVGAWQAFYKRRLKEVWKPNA
Experiment: structure; binary CasX-gRNA complex by SEC and cryo-EM; wild-type vs triple mutant not explicitly stated
Settings: tags: 2CT-10 vector; tag removed by TEV

B1: CasX sgRNA (in vitro transcribed; listed sequence is the DNA transcription template) (ssRNA)
RNA: GGCGCGUUUAUUCCAUUACUUUGGAGCCAGUCCCAGCGACUAUGUCGUAUGGACGAAGCGCUUAUUUAUCGGAGAGAAACCGAUAAGUAAAACGCAUCAAAGUCCUGCAGCAGAAAAUCAAA
binding result: binds
